Source: publication PMC10397247
Blank lines part the entries; values can stand above or below the binder they belong to.

Tests used:
Assay in all cases: two-hybrid library CCmax;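 further: natural log of median RNA to DNA barcode read ratio; higher means stronger binding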
4H122-AA = biological target: T1, 4H122-AA; details: mean of both orientations
T1 chain: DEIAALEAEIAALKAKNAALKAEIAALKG

4H1352-AA = biological target: T2, 4H1352-AA
T2 chain: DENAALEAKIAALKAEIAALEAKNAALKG

4H1109-AA = biological target: T3, 4H1109-AA; details: mean of both orientations
T3 chain: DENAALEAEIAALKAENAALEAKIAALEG

4H1146-AA = biological target: T4, 4H1146-AA; details: mean of both orientations
T4 chain: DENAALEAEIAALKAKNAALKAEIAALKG

4H1391-AA = biological target: T5, 4H1391-AA; details: mean of both orientations
T5 chain: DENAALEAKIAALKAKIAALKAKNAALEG

4H146-AA = biological target: T6, 4H146-AA; details: mean of both orientations
T6 chain: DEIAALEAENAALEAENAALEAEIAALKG

4H1809-AA = biological target: T7, 4H1809-AA; details: mean of both orientations
T7 chain: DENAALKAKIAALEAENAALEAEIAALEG

4H2948-AA = biological target: T8, 4H2948-AA; details: mean of both orientations
T8 chain: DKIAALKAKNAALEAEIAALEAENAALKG

4H2991-AA = biological target: T9, 4H2991-AA; details: mean of both orientations
T9 chain: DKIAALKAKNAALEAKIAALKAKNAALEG

4H3709-AA = biological target: T10, 4H3709-AA; details: mean of both orientations
T10 chain: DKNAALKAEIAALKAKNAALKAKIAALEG

4H428-AA = biological target: T11, 4H428-AA; details: mean of both orientations
T11 chain: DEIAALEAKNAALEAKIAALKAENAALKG

4H675-AA = biological target: T12, 4H675-AA; details: mean of both orientations
T12 chain: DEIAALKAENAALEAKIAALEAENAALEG

P5-AA-12HGe-R = biological target: T13, P5-AA-12HGe-R; details: mean of both orientations
T13 chain: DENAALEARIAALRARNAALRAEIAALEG

P5-AA-12HGe-W = biological target: T14, P5-AA-12HGe-W; details: mean of both orientations
T14 chain: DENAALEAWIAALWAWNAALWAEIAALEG

P5-AA-1HAA-D = biological target: T15, P5-AA-1HAA-D; details: mean of both orientations
T15 chain: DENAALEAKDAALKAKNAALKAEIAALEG

P5-AA-1HAA-H = biological target: T16, P5-AA-1HAA-H; details: mean of both orientations
T16 chain: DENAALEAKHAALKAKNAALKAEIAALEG

P5-AA-1HAA-N = biological target: T17, P5-AA-1HAA-N; details: mean of both orientations
T17 chain: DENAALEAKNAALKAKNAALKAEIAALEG

P5-AA-1HGe-W = biological target: T18, P5-AA-1HGe-W; details: mean of both orientations
T18 chain: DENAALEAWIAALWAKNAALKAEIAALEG

4H3651-AA = biological target: T19, 4H3651-AA; details: mean of both orientations
T19 chain: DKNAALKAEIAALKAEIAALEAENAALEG

4H3705-AA = biological target: T20, 4H3705-AA; details: mean of both orientations
T20 chain: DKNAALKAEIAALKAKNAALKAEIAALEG

4H465-AA = biological target: T21, 4H465-AA; details: mean of both orientations
T21 chain: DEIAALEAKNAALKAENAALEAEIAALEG

4H486-AA = biological target: T22, 4H486-AA; details: mean of both orientations
T22 chain: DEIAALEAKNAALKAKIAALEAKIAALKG

4H1405-AA = biological target: T23, 4H1405-AA; details: mean of both orientations
T23 chain: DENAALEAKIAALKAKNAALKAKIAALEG

4H1985-AA = biological target: T24, 4H1985-AA; details: mean of both orientations
T24 chain: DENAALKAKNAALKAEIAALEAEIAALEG

4H3409-AA = biological target: T25, 4H3409-AA; details: mean of both orientations
T25 chain: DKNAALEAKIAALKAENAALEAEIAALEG

4H3922-AA = biological target: T26, 4H3922-AA; details: mean of both orientations
T26 chain: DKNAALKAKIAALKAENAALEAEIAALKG

O3-AA = biological target: T27, O3-AA; details: mean of both orientations
T27 chain: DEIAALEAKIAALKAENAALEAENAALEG

O7-AA = biological target: T28, O7-AA; details: mean of both orientations
T28 chain: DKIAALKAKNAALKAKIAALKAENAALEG

O8-AA = biological target: T29, O8-AA; details: mean of both orientations
T29 chain: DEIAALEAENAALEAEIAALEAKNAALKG

P6-AA-12HGe-D = biological target: T30, P6-AA-12HGe-D; details: mean of both orientations
T30 chain: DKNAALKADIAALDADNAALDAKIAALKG

P6-AA-1HAA-S = biological target: T31, P6-AA-1HAA-S; details: mean of both orientations
T31 chain: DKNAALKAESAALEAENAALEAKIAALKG

P6-AA-1HAA-Y = biological target: T32, P6-AA-1HAA-Y; details: mean of both orientations
T32 chain: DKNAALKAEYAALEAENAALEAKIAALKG

P6-AA-1HGe-D = biological target: T33, P6-AA-1HGe-D; details: mean of both orientations
T33 chain: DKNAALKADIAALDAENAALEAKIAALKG

P6-AA-1HGe-T = biological target: T34, P6-AA-1HGe-T; details: mean of both orientations
T34 chain: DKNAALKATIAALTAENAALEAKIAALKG

4H324-AA = biological target: T35, 4H324-AA; details: mean of both orientations
T35 chain: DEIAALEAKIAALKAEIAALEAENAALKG

P6-AA-12HAA-H = biological target: T36, P6-AA-12HAA-H; details: mean of both orientations
T36 chain: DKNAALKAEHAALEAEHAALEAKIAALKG

P6-AA-12HAA-K = biological target: T37, P6-AA-12HAA-K; details: mean of both orientations
T37 chain: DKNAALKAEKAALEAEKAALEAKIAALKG

P6-AA-12HAA-R = biological target: T38, P6-AA-12HAA-R; details: mean of both orientations
T38 chain: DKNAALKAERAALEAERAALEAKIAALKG

4H1142-AA = biological target: T39, 4H1142-AA
T39 chain: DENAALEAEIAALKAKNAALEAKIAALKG

APC3645-AA = biological target: T40, APC3645-AA
T40 chain: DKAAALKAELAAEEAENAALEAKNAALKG

APC4264-AA = biological target: T41, APC4264-AA; details: mean of both orientations
T41 chain: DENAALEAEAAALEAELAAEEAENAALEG

APC4436-AA = biological target: T42, APC4436-AA; details: mean of both orientations
T42 chain: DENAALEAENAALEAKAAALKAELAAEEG

Binder: DKNAALKAEIAALEAENAALEAKIAALKG [4H3606-AA]
interaction score (P5-AA-12HGe-R): 1.65 | interaction score (P5-AA-12HGe-W): 1.04 | interaction score (P5-AA-1HAA-D): 1.43 | interaction score (P5-AA-1HAA-H): 2.02 | interaction score (P5-AA-1HAA-N): 1.72 | interaction score (P5-AA-1HGe-W): 2.27

Binder: DENAALEAENAALKAKIAALKAEIAALEG [4H1257-AA]
interaction score (4H3651-AA): -1.01 | interaction score (4H3705-AA): -1.52 | interaction score (4H465-AA): -0.726 | interaction score (4H486-AA): 1.54

Binder: DENAALEAKIAALKAEIAALEAKIAALKG [4H1350-AA]
interaction score (4H1405-AA): -0.893 | interaction score (4H1985-AA): 0.316 | interaction score (4H3409-AA): -1.11 | interaction score (4H3922-AA): -0.898

Binder: DEIAALEAENAALKAKNAALKAEIAALEG [4H249-AA]
interaction score (4H324-AA): -1.59

Binder: DENAALEAKIAALKAKIAALKAEIAALEG [4H1385-AA]
interaction score (P6-AA-12HAA-H): 1.75 | interaction score (P6-AA-12HAA-K): 2.03 | interaction score (P6-AA-12HAA-R): 1.72

Binder: DENAALEAEIAALKAKNAALEAKIAALKG [4H1142-AA]
interaction score (4H1142-AA): 0.123

Binder: DENAALKAKIAALEAKNAALEAKIAALEG [4H1845-AA]
interaction score (APC3645-AA): -1.23 | interaction score (APC4264-AA): -1.79 | interaction score (APC4436-AA): -1.83

Continued, values first:

interaction score (4H122-AA): -1.61 | interaction score (4H1352-AA): 0
Binder: DENAALEAENAALEAEIAALEAEIAALEG [4H1153-AA]

interaction score (4H1109-AA): -1.24 | interaction score (4H1146-AA): -0.282 | interaction score (4H1391-AA): 1.33 | interaction score (4H146-AA): -1.5 | interaction score (4H1809-AA): -1.44 | interaction score (4H2948-AA): -0.884 | interaction score (4H2991-AA): -0.846 | interaction score (4H3709-AA): -0.57 | interaction score (4H428-AA): -1.04 | interaction score (4H675-AA): -1.16
Binder: DENAALEAEIAALEAKIAALEAKNAALKG [4H1064-AA]

interaction score (O3-AA): -1.73 | interaction score (O7-AA): 1.08 | interaction score (O8-AA): 0.645
Binder: DEIAALEAENAALEAKIAALKAENAALEG [4H171-AA]

interaction score (P6-AA-12HGe-D): -0.647 | interaction score (P6-AA-1HAA-S): 1.9 | interaction score (P6-AA-1HAA-Y): 2.37 | interaction score (P6-AA-1HGe-D): 1.88 | interaction score (P6-AA-1HGe-T): 2.05
Binder: DENAALEAKIAALKAKNAALKAEIAALEG [4H1401-AA]
